This sample holds only a part of the variants without activity.
B1: TPR 5TU (parent)
chain: GGAUCUUCUCGAUCUAACAAAAAAGACAAAUCUGCCACAAAGCUUGAGAGCAUCUUCGGAUGCAGAGGCGGCAGCCUUCGGUGGCGCGAUAGCGCCAACGUUCUCAACUAUGACACGCAAAACGCGUGCUCCGUUGAAUGGAGUUUAUCAUG

Variants of: B1
Assay: polymerase ribozyme fitness, log enrichment relative to wild type (log ratio); higher = more active; in vitro selection for triplet polymerase activity
How it was run: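 Fitness is a logarithmic measure of how a genotype enriched relative to the wild type, with replicate averages weighted by inverse variance. The logarithm uses base 2, and enrichment came from Illumina sequencing of input and output libraries. Those libraries were PCR-built, transcribed mutants of each subunit of a heterodimeric triplet polymerase ribozyme, passed through one triplicate in vitro selection round that included frozen incubation at −7 °C, gel excision of extended constructs and streptavidin-bead capture. Genotypes were kept only if they had ≥10 input reads and ≥1 read per output.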

Question: For U55A A89U U102G, which “polymerase ribozyme fitness (log ratio)” value is on record?
Answer: The value was at most -4.2.

Question: For C54U C76U C93G A150G, which “polymerase ribozyme fitness (log ratio)” value is on record?
Answer: Its value is -4.08.

Question: Which “polymerase ribozyme fitness (log ratio)” value does the source give for C54G G92C A106G here?
Answer: The value was -2.99.

Question: Which “polymerase ribozyme fitness (log ratio)” value does the source give for C54U A150G here?
Answer: The value was -0.995.

Question: Which “polymerase ribozyme fitness (log ratio)” value does the source give for U55A A106U A107U here?
Answer: Its value is -4.11.

Question: With C54U G70A G83A U90A G143U as the variant, how does the “polymerase ribozyme fitness (log ratio)” value read?
Answer: Its value is at most -4.2.

Question: For C54G U55A A89U C118G A142C, which “polymerase ribozyme fitness (log ratio)” value is on record?
Answer: The value was -3.87.

Question: For C54U G71U C85A C96G G133C U145G G152A, which “polymerase ribozyme fitness (log ratio)” value is on record?
Answer: Its value is at most -4.2.

Question: Which “polymerase ribozyme fitness (log ratio)” value does the source give for C54U C87U G92C here?
Answer: Its value is -0.365.

Question: For C54U U55A C76A A91U C95A C103A C131G A138U, which “polymerase ribozyme fitness (log ratio)” value is on record?
Answer: The value was at most -4.2.

Question: For U55A U56A G59A, which “polymerase ribozyme fitness (log ratio)” value is on record?
Answer: Its value is 0.199.

Question: Which “polymerase ribozyme fitness (log ratio)” value does the source give for U55A G58U G84A C103U A120C here?
Answer: Its value is -0.0961.

Question: With U55A A73U C93A A122U as the variant, how does the “polymerase ribozyme fitness (log ratio)” value read?
Answer: Its value is -3.55.

Question: With U55A U56G C75G as the variant, how does the “polymerase ribozyme fitness (log ratio)” value read?
Answer: Its value is -4.19.

Question: Which “polymerase ribozyme fitness (log ratio)” value does the source give for C54U G84C G100C C108A A113U G141U here?
Answer: The value was at most -4.2.

Question: With U55A A66C U77A C87A as the variant, how does the “polymerase ribozyme fitness (log ratio)” value read?
Answer: Its value is at most -4.2.

Question: Which “polymerase ribozyme fitness (log ratio)” value does the source give for C54U C63A C149U here?
Answer: Its value is -1.67.

Question: Which “polymerase ribozyme fitness (log ratio)” value does the source give for C54U A121U here?
Answer: The value was 0.0158.

Question: With U55A A147C as the variant, how does the “polymerase ribozyme fitness (log ratio)” value read?
Answer: The value was -1.3.

Question: For C54U U146G, which “polymerase ribozyme fitness (log ratio)” value is on record?
Answer: Its value is -0.826.

Question: With C54U U146A as the variant, how does the “polymerase ribozyme fitness (log ratio)” value read?
Answer: Its value is -0.881.

Question: With U55A G58A A89C A120U U134C as the variant, how does the “polymerase ribozyme fitness (log ratio)” value read?
Answer: The value was 0.161.

Question: With C54G G83U C108U A115G G143A as the variant, how does the “polymerase ribozyme fitness (log ratio)” value read?
Answer: The value was at most -4.2.

Question: For U55A G92U U146C, which “polymerase ribozyme fitness (log ratio)” value is on record?
Answer: The value was -0.69.

Question: With U55A C75G U77G A107U as the variant, how does the “polymerase ribozyme fitness (log ratio)” value read?
Answer: The value was at most -4.2.

Question: With C54G G80C G81A C85U C129A U135C as the variant, how does the “polymerase ribozyme fitness (log ratio)” value read?
Answer: The value was at most -4.2.

Question: Which “polymerase ribozyme fitness (log ratio)” value does the source give for U55A C69A A97U U102C C149A here?
Answer: Its value is at most -4.2.

Question: With U55A C108G as the variant, how does the “polymerase ribozyme fitness (log ratio)” value read?
Answer: The value was at most -4.2.

Question: Which “polymerase ribozyme fitness (log ratio)” value does the source give for C54U C75G G81C U127A here?
Answer: The value was at most -4.2.

Question: For U55A G94C, which “polymerase ribozyme fitness (log ratio)” value is on record?
Answer: The value was -0.443.

Question: For C54U C125G, which “polymerase ribozyme fitness (log ratio)” value is on record?
Answer: Its value is -1.05.

Question: Which “polymerase ribozyme fitness (log ratio)” value does the source give for C54U A97C here?
Answer: Its value is -0.294.

Question: With C54U C99G U101G A142U as the variant, how does the “polymerase ribozyme fitness (log ratio)” value read?
Answer: Its value is -3.57.

Question: With C54U G58C as the variant, how does the “polymerase ribozyme fitness (log ratio)” value read?
Answer: Its value is -0.858.

Question: With C54U G58A as the variant, how does the “polymerase ribozyme fitness (log ratio)” value read?
Answer: Its value is 0.498.

Question: Which “polymerase ribozyme fitness (log ratio)” value does the source give for C54U U56C A73U here?
Answer: The value was -1.06.

Question: Which “polymerase ribozyme fitness (log ratio)” value does the source give for C54G U102C U144A here?
Answer: Its value is -3.91.

Question: With U55A A66U G74A C75A C79G G88C C95G A137U as the variant, how does the “polymerase ribozyme fitness (log ratio)” value read?
Answer: Its value is at most -4.2.

Question: For C54U U56A G81A C95A U101C, which “polymerase ribozyme fitness (log ratio)” value is on record?
Answer: Its value is -1.35.

Question: With U55A A60U C118G A119C as the variant, how does the “polymerase ribozyme fitness (log ratio)” value read?
Answer: Its value is -0.427.

Question: With C54U C96U C118U as the variant, how does the “polymerase ribozyme fitness (log ratio)” value read?
Answer: Its value is -0.868.

Question: For U55A G71A U77C C95U A113C C149G, which “polymerase ribozyme fitness (log ratio)” value is on record?
Answer: The value was at most -4.2.

Question: For U55A C57U A66C G94A A106G G128U G140A, which “polymerase ribozyme fitness (log ratio)” value is on record?
Answer: The value was at most -4.2.

Question: For U55A G59A U148G, which “polymerase ribozyme fitness (log ratio)” value is on record?
Answer: Its value is -2.52.

Question: For C54U G88A A89U C95A C99U U146G U151A, which “polymerase ribozyme fitness (log ratio)” value is on record?
Answer: Its value is at most -4.2.

Question: Which “polymerase ribozyme fitness (log ratio)” value does the source give for C54U G84A A97U here?
Answer: Its value is -1.27.

Question: For U55A C63A, which “polymerase ribozyme fitness (log ratio)” value is on record?
Answer: Its value is -0.431.

Question: With C54G G59U U135C A138U as the variant, how does the “polymerase ribozyme fitness (log ratio)” value read?
Answer: The value was at most -4.2.

Question: For C54U C57G G84U C96A, which “polymerase ribozyme fitness (log ratio)” value is on record?
Answer: Its value is -3.23.

Question: For U55A C85A C105U U134A, which “polymerase ribozyme fitness (log ratio)” value is on record?
Answer: The value was at most -4.2.

Question: With C54U U78A G86U U104C C105A U130G C132A G136A as the variant, how does the “polymerase ribozyme fitness (log ratio)” value read?
Answer: Its value is at most -4.2.

Question: For U55A G58A C85A C131U, which “polymerase ribozyme fitness (log ratio)” value is on record?
Answer: Its value is 0.931.

Question: For C54U C105A C131G, which “polymerase ribozyme fitness (log ratio)” value is on record?
Answer: Its value is at most -4.2.

Question: For C54G G83C A97U A98U, which “polymerase ribozyme fitness (log ratio)” value is on record?
Answer: The value was -2.8.

Question: With C54U U130G as the variant, how does the “polymerase ribozyme fitness (log ratio)” value read?
Answer: The value was -3.73.

Question: Which “polymerase ribozyme fitness (log ratio)” value does the source give for C54G G140A U146A here?
Answer: Its value is at most -4.2.

Question: With U55A C96G A115U A119G as the variant, how does the “polymerase ribozyme fitness (log ratio)” value read?
Answer: Its value is -2.42.

Question: With C54G G80U as the variant, how does the “polymerase ribozyme fitness (log ratio)” value read?
Answer: The value was -3.52.

Question: For C54G U61C G84U C87U G88A A119U, which “polymerase ribozyme fitness (log ratio)” value is on record?
Answer: Its value is at most -4.2.

Question: Which “polymerase ribozyme fitness (log ratio)” value does the source give for C54U U55G C95A A119C U127G A142C here?
Answer: Its value is at most -4.2.

Question: With U55A G88C G133U U145C as the variant, how does the “polymerase ribozyme fitness (log ratio)” value read?
Answer: Its value is at most -4.2.

Question: Which “polymerase ribozyme fitness (log ratio)” value does the source give for U55A G86A C149U A150U here?
Answer: Its value is -1.65.

Question: Which “polymerase ribozyme fitness (log ratio)” value does the source give for C54U G68C C69G G71U G140A U144G here?
Answer: The value was at most -4.2.

Question: With C54U G65A C85U A89G U146G as the variant, how does the “polymerase ribozyme fitness (log ratio)” value read?
Answer: The value was -4.13.

Question: Which “polymerase ribozyme fitness (log ratio)” value does the source give for U55A U61A C93U C103A here?
Answer: The value was at most -4.2.

Question: With U55A C72A A119U as the variant, how does the “polymerase ribozyme fitness (log ratio)” value read?
Answer: The value was at most -4.2.

Question: For U55A A60G C69U G92U A147U, which “polymerase ribozyme fitness (log ratio)” value is on record?
Answer: The value was -0.244.

Question: Which “polymerase ribozyme fitness (log ratio)” value does the source give for C54U C96A C105U here?
Answer: Its value is 0.0167.

Question: Which “polymerase ribozyme fitness (log ratio)” value does the source give for U55A G143C here?
Answer: Its value is -2.99.

Question: Which “polymerase ribozyme fitness (log ratio)” value does the source give for U55A U61A here?
Answer: Its value is -3.16.

Question: Which “polymerase ribozyme fitness (log ratio)” value does the source give for C54U U55G U82G here?
Answer: The value was -1.38.

Question: With U55A C72U G83A as the variant, how does the “polymerase ribozyme fitness (log ratio)” value read?
Answer: Its value is -0.82.

Question: Which “polymerase ribozyme fitness (log ratio)” value does the source give for C54U C95A G126U U148A here?
Answer: Its value is at most -4.2.

Question: Which “polymerase ribozyme fitness (log ratio)” value does the source give for C54U C99U here?
Answer: Its value is -0.322.

Question: With C54U C85U C129U as the variant, how does the “polymerase ribozyme fitness (log ratio)” value read?
Answer: Its value is -0.134.

Question: Which “polymerase ribozyme fitness (log ratio)” value does the source give for U55A C57U C85G G94C C99G C149G here?
Answer: The value was at most -4.2.

Question: Which “polymerase ribozyme fitness (log ratio)” value does the source give for C54U G84C C93U U144C here?
Answer: The value was at most -4.2.

Question: For C54U A91U U102G, which “polymerase ribozyme fitness (log ratio)” value is on record?
Answer: Its value is at most -4.2.

Question: For U55A C69G, which “polymerase ribozyme fitness (log ratio)” value is on record?
Answer: The value was -3.05.

Question: For U55A C57U C87G C125A, which “polymerase ribozyme fitness (log ratio)” value is on record?
Answer: The value was at most -4.2.

Question: With C54U U55A C95G C96A as the variant, how does the “polymerase ribozyme fitness (log ratio)” value read?
Answer: The value was -3.07.

Question: With U55A C57U C85U A91G G141U as the variant, how does the “polymerase ribozyme fitness (log ratio)” value read?
Answer: The value was -1.7.

Question: For C54U C57G C87A G128A, which “polymerase ribozyme fitness (log ratio)” value is on record?
Answer: Its value is at most -4.2.

Question: For C54U A115G, which “polymerase ribozyme fitness (log ratio)” value is on record?
Answer: Its value is -3.13.

— the RNAGym collection of RNA variant scans (doi:10.1073/pnas.2313332121)
